Test results published in patent US20220177549A1.
Numbering of substitutions follows the chain as printed. In names and notes the source's numbering stands. Blank lines part the entries; values can stand above or below the binder they belong to.

Legend:
[1] = target: porcine FcRn complex (porcine) (UniProt Q07717); test: SPR (Biacore 8K+), pH 5.9, 25 C; FcRn captured by anti-His, IgG as analyte; 1:1 kinetic model
[2] = target: porcine FcRn complex (porcine) (UniProt Q07717); test: SPR (Biacore 8K+), pH 5.9, 25 C; FcRn captured by anti-His, IgG as analyte; steady state affinity
[3] = target: bovine FcRn complex (bovine) (UniProt F6R592); test: SPR (Biacore 8K+), pH 5.9, 25 C; FcRn captured by anti-His, IgG as analyte; 1:1 kinetic model
[4] = target: equine FcRn complex (equine) (UniProt F6XZ61); test: as above
[5] = target: ovine FcRn complex (ovine) (UniProt Q6QAT4); test: SPR (Biacore 8K+), pH 5.9, 25 C; FcRn captured by anti-His, IgG as analyte; steady state affinity
[6] = target: ovine FcRn complex (ovine) (UniProt Q6QAT4); test: SPR (Biacore 8K+), pH 5.9, 25 C; FcRn captured by anti-His, IgG as analyte; 1:1 kinetic model

bovine FcRn complex (bovine), sequence (chain, as listed by the source, chain 1 of 2): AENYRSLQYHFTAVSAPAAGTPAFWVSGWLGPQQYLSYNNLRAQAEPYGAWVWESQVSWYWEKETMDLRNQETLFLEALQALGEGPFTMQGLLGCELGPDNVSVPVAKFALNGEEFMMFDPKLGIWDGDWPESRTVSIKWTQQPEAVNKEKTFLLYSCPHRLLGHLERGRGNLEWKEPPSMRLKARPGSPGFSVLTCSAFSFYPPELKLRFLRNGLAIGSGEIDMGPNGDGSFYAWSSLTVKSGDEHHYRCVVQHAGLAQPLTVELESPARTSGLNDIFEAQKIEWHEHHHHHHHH
bovine FcRn complex (bovine), sequence (P01888 other isoform, or with tags, fused parts or gaps, chain 2 of 2): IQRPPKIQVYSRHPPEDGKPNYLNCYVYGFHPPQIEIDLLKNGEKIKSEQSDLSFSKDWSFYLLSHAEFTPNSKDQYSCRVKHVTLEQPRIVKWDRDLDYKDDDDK
ovine FcRn complex (ovine), sequence (main, as listed by the source, chain 1 of 2): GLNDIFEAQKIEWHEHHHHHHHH
ovine FcRn complex (ovine), sequence (Q6QAT4 other isoform, or with tags, fused parts or gaps, chain 2 of 2): as the sequence (P01888 other isoform, or with tags, fused parts or gaps, chain 2 of 2) above, with P4I, K6E, I7V, K82N, E87T, R90K counted along it
porcine FcRn complex (porcine), sequence (Q07717 other isoform, or with tags, fused parts or gaps, chain 2 of 2): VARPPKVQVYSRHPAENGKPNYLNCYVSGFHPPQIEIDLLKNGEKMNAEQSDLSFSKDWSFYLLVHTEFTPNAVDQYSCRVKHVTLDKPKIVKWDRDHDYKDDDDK
equine FcRn complex (equine), sequence (chain, as listed by the source, chain 1 of 2): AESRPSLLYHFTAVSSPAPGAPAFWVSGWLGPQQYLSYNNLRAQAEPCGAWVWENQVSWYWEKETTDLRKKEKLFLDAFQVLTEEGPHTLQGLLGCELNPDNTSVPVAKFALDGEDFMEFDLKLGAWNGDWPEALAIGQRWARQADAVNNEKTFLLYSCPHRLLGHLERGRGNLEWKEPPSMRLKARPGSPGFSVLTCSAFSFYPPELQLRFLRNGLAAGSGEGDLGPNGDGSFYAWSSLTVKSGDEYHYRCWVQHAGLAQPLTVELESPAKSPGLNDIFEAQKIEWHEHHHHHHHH
equine FcRn complex (equine), sequence (P30441 other isoform, or with tags, fused parts or gaps, chain 2 of 2): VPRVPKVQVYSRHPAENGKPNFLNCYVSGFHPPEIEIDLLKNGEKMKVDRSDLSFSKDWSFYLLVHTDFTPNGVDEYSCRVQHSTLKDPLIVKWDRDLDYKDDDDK

B1: Porcine T286E (antibody, part only; not given: variable domains and light chain, IgG1a, not shown: another chain or arm of the molecule)
Fc: GCEVAGPSVFIFPPKPKDTLMISQTPEVTCVVVDVSKEHAEVQFSWYVDGVEVHEAETRPKEEQFNSTYRVVSVLPIQHQDWLKGKEFKCKVNNVDLPAPITRTISKAIGQSREPQVYTLPPPAEELSRSKVTVTCLVIGFYPPDIHVEWKSNGQPEPEGNYRTTPPQQDVDGTFFLYSKLAVDKARWDHGETFECAVMHEALHNHYTQKSISKTQGK
Fold increase over wild-type KD [1]: 3.3 fold
Kd [1]: 96.1 nM

B2: Porcine Q309D (antibody, part only; not given: variable domains and light chain, IgG1a, not shown: another chain or arm of the molecule)
Fc: B1 Fc with E55T, Q78D
Fold increase over wild-type KD [1]: 3.4 fold
Kd [1]: 93.6 nM

B4: Porcine A426Y (antibody, part only; not given: variable domains, light chain, IgG1a, not shown: another chain or arm of the molecule)
Fc: B1 Fc with E55T, A197Y
Fold increase over wild-type KD [1]: 3 fold
Kd [1]: 105 nM

B5: Porcine Q311V (antibody, part only; not given: variable domains and light chain, IgG1a, not shown: another chain or arm of the molecule)
Fc: B1 Fc with E55T, Q80V
Fold increase over wild-type KD [1]: 4.1 fold
Kd [1]: 76.4 nM

B7: Porcine wild-type (antibody, part only; not given: variable domains and light chain, IgG1a, not shown: another chain or arm of the molecule)
Fc: B1 Fc with E55T
Fold increase over wild-type KD [2]: 1 fold

B10: Bovine wild-type (antibody, part only; not given: variable domains, light chain, IgG1, not shown: another chain or arm of the molecule)
Fc: PPELPGGPSVFIFPPKPKDTLTISGTPEVTCVVVDVGHDDPEVKFSWFVDNVEVNTATTKPREEQFNSTYRVVSALRIQHQDWTGGKEFKCKVHNEGLPAPIVRTISRTKGPAREPQVYVLAPPQEELSKSTVSLTCMVTSFYPDYIAVEWQRNGQPESEDKYGTTPPQLDADSSYFLYSKLRVDRNSWQEGDTYTCVVMHEALHNHYTQKSTSKSA
Fold increase over wild-type KD [3]: 1 fold
Kd [3]: 505 nM

B11: Bovine Q309V (antibody, part only; not given: variable domains, light chain, IgG1, not shown: another chain or arm of the molecule)
Fc: B10 Fc with Q79V
Fold increase over wild-type KD [3]: 3.9 fold
Kd [3]: 129 nM

B12: Bovine N434Y (antibody, part only; not given: variable domains and light chain, IgG1, not shown: another chain or arm of the molecule)
Fc: B10 Fc with N206Y
Fold increase over wild-type KD [3]: 42 fold
Kd [3]: 11.9 nM

B16: Equine Q311V (antibody, part only; not given: variable domains and light chain, IgG1, not shown: another chain or arm of the molecule)
Fc: APELLGGPSVFIFPPNPKDTLMITRTPEVTCVVVDVSQENPDVKFNWYMDGVEVRTATTRPKEEQFNSTYRVVSVLRIQHVDWLSGKEFKCKVNNQALPQPIERTITKTKGRSQEPQVYVLAPHPDELSKSKVSVTCLVKDFYPPEINIEWQSNGQPELETKYSTTQAQQDSDGSYFLYSKLSVDRNRWQQGTTFTCGVMHEALHNHYTQKNVSKNPGK
Fold increase over wild-type KD [4]: 4 fold
Kd [4]: 35.7 nM

B20: Equine Y436H (antibody, part only; not given: variable domains and light chain, IgG1, not shown: another chain or arm of the molecule)
Fc: B16 Fc with V81Q, Y208H
Fold increase over wild-type KD [4]: 0.9 fold
Kd [4]: 156 nM

B21: Equine N434Y (antibody, part only; not given: variable domains and light chain, IgG1, not shown: another chain or arm of the molecule)
Fc: B16 Fc with V81Q, N206Y
Fold increase over wild-type KD [4]: 61 fold
Kd [4]: 2.35 nM

B24: Ovine wild-type (antibody, part only; not given: variable domains and light chain, IgG1, not shown: another chain or arm of the molecule)
Fc: PELPGGPSVFIFPPKPKDTLTISGTPEVTCVVVDVGQDDPEVQFSWFVDNVEVRTARTKPREEQFNSTFRVVSALPIQHQDWTGGKEFKCKVHNEALPAPIVRTISRTKGQAREPQVYVLAPPQEELSKSTLSVTCLVTGFYPDYIAVEWQKNGQPESEDKYGTTTSQLDADGSYFLYSRLRVDKNSWQEGDTYACVVMHEALHNHYTQKSISKPPGK
Fold increase over wild-type KD [5]: 1 fold

B26: Ovine Q309V (antibody, part only; not given: variable domains and light chain, IgG1, not shown: another chain or arm of the molecule)
Fc: B24 Fc with Q78V
Fold increase over wild-type KD [6]: 6.3 fold
Kd [6]: 79.3 nM

B29: Ovine M428Y (antibody, part only; not given: variable domains and light chain, IgG1, not shown: another chain or arm of the molecule)
Fc: B24 Fc with M199Y
Fold increase over wild-type KD [6]: 3 fold
Kd [6]: 166 nM

More lines, now with the values ahead:

Fold increase over wild-type KD [1]: 40 fold
Kd [1]: 7.93 nM
B3: Porcine N434Y (antibody, part only; not given: variable domains and light chain, IgG1a, not shown: another chain or arm of the molecule)
Fc: B1 Fc with E55T, N205Y

Fold increase over wild-type KD [1]: 3.6 fold
Kd [1]: 86.9 nM
B6: Porcine M428Y (antibody, part only; not given: variable domains and light chain, IgG1a, not shown: another chain or arm of the molecule)
Fc: B1 Fc with E55T, M199Y

Fold increase over wild-type KD [1]: 9.3 fold
Kd [1]: 34.1 nM
B8: Porcine Q309V (antibody, part only; not given: variable domains, light chain, IgG1a, not shown: another chain or arm of the molecule)
Fc: B1 Fc with E55T, Q78V

Fold increase over wild-type KD [1]: 3.3 fold
Kd [1]: 97.2 nM
B9: Porcine M252Y (antibody, part only; not given: variable domains and light chain, IgG1a, not shown: another chain or arm of the molecule)
Fc: B1 Fc with M21Y, E55T

Fold increase over wild-type KD [3]: 2.3 fold
Kd [3]: 224 nM
B13: Bovine Y436H (antibody, part only; not given: variable domains and light chain, IgG1, not shown: another chain or arm of the molecule)
Fc: B10 Fc with Y208H

Fold increase over wild-type KD [3]: 7.1 fold
Kd [3]: 71.4 nM
B14: Bovine T252Y (antibody, part only; not given: variable domains and light chain, IgG1, not shown: another chain or arm of the molecule)
Fc: B10 Fc with T22Y

Fold increase over wild-type KD [3]: 2.8 fold
B15: Bovine Q311V (antibody, part only; not given: variable domains and light chain, IgG1, not shown: another chain or arm of the molecule)
Fc: B10 Fc with Q81V

Fold increase over wild-type KD [4]: 1 fold
Kd [4]: 144 nM
B17: Equine Q309D (antibody, part only; not given: variable domains and light chain, IgG1, not shown: another chain or arm of the molecule)
Fc: B16 Fc with Q79D, V81Q

Fold increase over wild-type KD [4]: 3 fold
Kd [4]: 48 nM
B18: Equine T286E (antibody, part only; not given: variable domains and light chain, IgG1, not shown: another chain or arm of the molecule)
Fc: B16 Fc with T56E, V81Q

Fold increase over wild-type KD [4]: 2 fold
Kd [4]: 71.4 nM
B19: Equine M252Y (antibody, part only; not given: variable domains, light chain, IgG1, not shown: another chain or arm of the molecule)
Fc: B16 Fc with M22Y, V81Q

Fold increase over wild-type KD [4]: 0.9 fold
Kd [4]: 151 nM
B22: Equine M428Y (antibody, part only; not given: variable domains, light chain, IgG1, not shown: another chain or arm of the molecule)
Fc: B16 Fc with V81Q, M200Y

Fold increase over wild-type KD [4]: 7.2 fold
Kd [4]: 20.2 nM
B23: Equine Q309V (antibody, part only; not given: variable domains, light chain, IgG1, not shown: another chain or arm of the molecule)
Fc: B16 Fc with Q79V, V81Q

Fold increase over wild-type KD [6]: 81 fold
Kd [6]: 6.09 nM
B25: Ovine N434Y (antibody, part only; not given: variable domains and light chain, IgG1, not shown: another chain or arm of the molecule)
Fc: B24 Fc with N205Y

Fold increase over wild-type KD [6]: 11 fold
Kd [6]: 43.1 nM
B27: Ovine T252Y (antibody, part only; not given: variable domains and light chain, IgG1, not shown: another chain or arm of the molecule)
Fc: B24 Fc with T21Y

Fold increase over wild-type KD [6]: 5.4 fold
Kd [6]: 92.7 nM
B28: Ovine Q311V (antibody, part only; not given: variable domains and light chain, IgG1, not shown: another chain or arm of the molecule)
Fc: B24 Fc with Q80V
